# According to PMC12752648:
# Assays:
# [1] = molecular target: oncolytic virus M1 (OVM) virions (oncolytic virus M1 (Getah-like alphavirus)); assay: BLI; Octet RED96e; OVM loaded on aminopropylsilane (APS) biosensors in PBS; TPRA1-ECD-Fc (0.5-8 µM) or Fc (8 µM) in PBS with 0.02% Tween-20 and 1 mg/mL BSA; 1:1 binding model
# [2] = GFP-positive 22Rv1 cells by flow cytometry, 48 h; conditions: glycan lost; control: wild-type TPRA1
# [3] = molecular target: oncolytic virus M1 (OVM) virions; assay: virus binding to cells measured by qRT-PCR; conditions: 22Rv1 cells expressing TPRA1 variants; parent: est. 1.4; read off a plot
substance,measurement,setting,value
recombinant extracellular domain of TPRA1 fused to an Fc tag (TPRA1-ECD-Fc) (from UniProt Q86W33-1 1-47) (Fc fusion),Kd,[1],91 nM
TPRA1 (transmembrane protein adipocyte-associated 1): N11/23Q,other: susceptibility of cells to viral infection,[2],decreases
HA-tagged full-length TPRA1 (from UniProt Q86W33-1) N11Q; N23Q,other: Relative change in binding,[3],0.35
